Results on twelve molecules are retold here after US20230257472A1 (JIANGSU HENGRUI MEDICINE, published 2023).

For orientation: EC50 (read off the curve) means the concentration that produces a half-maximal response. Broadly, the Kd is the constant that tells how readily two partners part at equilibrium. Broadly, the koff is the first-order rate constant of dissociation. For orientation: kon means a measure of how fast the partners come together.

The chains are these.
B1: huB7002 (antibody, human IgG1, kappa, V domains shown)
VH: EVQLVQSGSELKKPGASVKVSCKASGYTFTNYGMNWVRQAPGQGLEWMGWINTYTGEPTYADEFKGRFVFSLDTSVSTAYLQISSLKAEDTAVYYCARGDSFTTEILRNWYFDVWGQGTTVTVSS
VL: DIQMTQSPSSLSASVGDRVTITCGASENIYGALNWYQQKPGKVPKLLIYGATNLADGVPSRFSGSGSGTDFTLTISSLQPEDVATYYCQNVLSTPWTFGGGTKVEIKR
notes: Humanized IgG1
B2: huF4011 (afuc) (antibody, human IgG1, kappa, V domains shown)
VH: EVQLVQSGAEVKKPGSSVKVSCKASGDTFPRYNMHWVRQAPGQGLEWMGAIFPGTGETSYNQNFKGRVTLTADKSTSTAYMELSSLRSEDTAVYYCARNSYYDYAWFTYWGQGTLVTVSS
VL: DIVMTQSPDSLAVSLGERATINCRASKSVSSSGYSFMHWYQQKPGQPPKLLISLADNLESGVPDRFSGSGSGTDFTLTISSLQAEDVAVYYCQHSREFPPTFGQGTKLEIKR
modifications: non-fucosylated (heavy chain not modified by fucosylation)
notes: also called non-fucosylated antibody of huF4011
B3: huB1010 (afuc) (antibody, human IgG1, kappa, V domains shown)
VH: EVQMVQSGAEVKKPGASVKVSCKASGYTFTTYNIHWVRQAPGQGLEWMGDIYPGTGDASYNQKFRDRVTMTRDTSTSTVYMELSSLRSEDTAVYYCATFSRFDGWFAYWGQGTLVTVSS
VL: B2 VL with K27R, S31T, F36Y, S53Y, F98L, P100Y, Q104G, L108V
modifications: non-fucosylated (heavy chain not modified by fucosylation)
notes: also called non-fucosylated antibody of huB1010
B4: 41D12 (positive control antibody, see WO2012123586) (antibody, human IgG1, lambda, V domains shown)
VH: EVQLVESGGGLVQPGGSLRLSCAASGFTFSVYYMNWVRQAPGKGLEWVSDINNEGGTTYYADSVKGRFTISRDNSKNSLYLQMNSLRAEDTAVYYCARDAGYSNHVPIFDSWGQGTLVTVSS
VL: QAVVTQEPSLTVSPGGTVTLTCGLKSGSVTSDNFPTWYQQTPGQAPRLLIYNTNTRHSGVPDRFSGSILGNKAALTITGAQADDEAEYFCALFISNPSVEFGGGTQLTVLG
B5: 41D12 (afuc) (antibody, human IgG1, lambda, V domains shown)
VH: B4 VH
VL: B4 VL
modifications: non-fucosylated (heavy chain not modified by fucosylation)
notes: also called non-fucosylated antibody of 41D12
B6: huB7002 (afuc) (antibody, human IgG1, kappa, V domains shown)
VH: B1 VH
VL: B1 VL
modifications: non-fucosylated (heavy chain not modified by fucosylation)
notes: also called non-fucosylated antibody of huB7002
B7: CHF4 (chimeric antibody of F4) (antibody, human IgG1, kappa, V domains shown)
VH: QVQLKQSGAELVKPGASVKMSCKASGDTFPRYNMHWLKQTPGQGLEWIGAIFPGNGETSYNQNFKGKATLTADKSSSTAYMQLNSLTSEDSAVYYCARNSYYDYAWFTYWGQGTLVTVSA
VL: DIVMTQSPASLDVSLGQRATISCRASKSVSSSGYSFMHWYQQKPGQPPKLLISLASNLESGVPARFSGSGSGTDFTLTIYPVEEEDAATYYCQHSREFPPTFGSGTKLEIKR
notes: Murine variable regions on human IgG1 / human light chain constant regions
B8: CHB1 (chimeric antibody of B1) (antibody, human IgG1, kappa, V domains shown)
VH: QVQMQQSGAELVKPGASVMMSCKASGYTFTTYNIHWIKQTPGQGLEWIGDIYPGNGDASYNQKFRDRATLTADRSSSTAYLQLSSLTSEDSAIYYCATFSRFDGWFAYWGQGTLVTVSA
VL: DIVMSQSPASLAVSLGQRATISCRASRSVSTSGYSYMHWYQQKPGQPPKLLIYLASNLESGVPARFSGSGSGTNFTLNIHPVEEEDAATYYCQHSRELPYTFGGGTKLEIKR
notes: as for B7
B9: huB1026 (antibody, human IgG1, kappa, V domains shown)
VH: B3 VH with T55N
VL: B2 VL with K27R, S31T, F36Y, S53Y, D56S, F98L, P100Y, Q104G, L108V
notes: Humanized IgG1
B10: huB1037 (antibody, human IgG1, kappa, V domains shown)
VH: B3 VH with M4L, T55N, T98R
VL: DIVMSQSPDSLAVSLGERATINCRASRSVSTSGYSYMHWYQQKPGQPPKLLIYLASNLESGVPDRFSGSGSGTNFTLTISSLQAEDVAVYYCQHSRELPYTFGGGTKVEIKR
notes: Humanized IgG1
B11: huB1025 (antibody, human IgG1, kappa, V domains shown)
VH: B3 VH with M4L, T55N, T98R
VL: B10 VL with S5T, N74D
notes: Humanized IgG1
B12: huB1038 (antibody, human IgG1, kappa, V domains shown)
VH: B3 VH with T55N
VL: B10 VL
notes: Humanized IgG1

Changes are numbered by the printed parent chain.

fusion protein of the CD70 protein extracellular domain and Human-IgG1-Fc (human CD70-Fc) (human), sequence (chain, as listed by the source limits assumed): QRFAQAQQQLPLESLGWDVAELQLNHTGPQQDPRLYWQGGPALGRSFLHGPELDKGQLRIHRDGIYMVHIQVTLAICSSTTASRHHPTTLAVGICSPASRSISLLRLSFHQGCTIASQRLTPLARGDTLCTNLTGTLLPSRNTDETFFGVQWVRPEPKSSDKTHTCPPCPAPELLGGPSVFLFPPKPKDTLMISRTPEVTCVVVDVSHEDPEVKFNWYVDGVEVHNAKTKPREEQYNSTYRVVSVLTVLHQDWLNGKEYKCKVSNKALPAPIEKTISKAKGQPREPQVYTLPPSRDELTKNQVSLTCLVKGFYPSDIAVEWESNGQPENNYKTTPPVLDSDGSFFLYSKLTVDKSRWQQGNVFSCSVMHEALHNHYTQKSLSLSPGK
T1 sequence (chain, as listed by the source limits assumed): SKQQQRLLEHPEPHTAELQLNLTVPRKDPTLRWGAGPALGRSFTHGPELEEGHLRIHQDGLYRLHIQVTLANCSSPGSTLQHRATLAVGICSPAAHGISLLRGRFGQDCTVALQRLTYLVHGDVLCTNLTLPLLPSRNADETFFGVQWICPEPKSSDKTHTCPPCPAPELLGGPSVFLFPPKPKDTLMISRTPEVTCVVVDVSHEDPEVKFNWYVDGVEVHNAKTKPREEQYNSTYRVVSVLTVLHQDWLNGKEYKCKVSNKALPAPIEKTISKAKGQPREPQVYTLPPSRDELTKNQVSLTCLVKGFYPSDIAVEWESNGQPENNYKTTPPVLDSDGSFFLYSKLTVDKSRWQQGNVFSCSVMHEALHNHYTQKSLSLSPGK

One experiment has as its target T1, fusion protein of the murine CD70 protein extracellular domain and Human-IgG1-Fc (mouse CD70-Fc) (mouse).
T1 construct: also called mouse CD70 antigen
The experiment in a line: ELISA, plate coated with 1 µg/mL mouse CD70-Fc, HRP goat anti-human F(ab')2 detection. The protocol:
(§1) The binding ability of the anti-CD70 antibodies was determined by the amount of the antibodies bound to the CD70 antigen protein immobilized on the ELISA plate. 1 μg/mL human CD70-Fc (set forth in SEQ ID NO: 2), monkey CD70-Fc (set forth in SEQ ID NO: 82) and mouse CD70-Fc (set forth in SEQ ID NO: 83) were coated, incubated and blocked. […] OD450 values were measured on a microplate reader.
Background: An ELISA detects its analyte on a solid surface through an enzyme-linked reagent.
Consider B1, for which the binding result is “no binding (tested: 10 µg/mL (log 1))”.

The target of a further experiment is T2, human CD70 on cells (CD70-positive 786-O cells, Raji cells, CHO-S cells expressing human full-length CD70, … (human, UniProt P32970 1-193)).
T2 construct: whole, on cells; Endogenous on 786-O, Raji and U266 cells; transfected full-length human CD70 on CHO-S cells; also called CD70-positive cells
T2 sequence (looked up): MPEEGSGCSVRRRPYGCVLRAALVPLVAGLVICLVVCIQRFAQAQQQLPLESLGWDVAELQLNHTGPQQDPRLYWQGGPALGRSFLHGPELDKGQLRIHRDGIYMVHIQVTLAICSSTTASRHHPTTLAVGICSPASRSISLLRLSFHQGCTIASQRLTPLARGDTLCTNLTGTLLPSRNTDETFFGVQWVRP
Briefly: flow cytometry on CD70-positive Raji cells, Alexa Fluor 488 goat anti-human (H+L) detection. The protocol:
(§2) 786-O cells (ATCC, CRL-1932) or Raji cells (ATCC, CCL-86) at 1×10⁶ cells/mL were blocked with 1% BSA PBS buffer, followed by the addition of diluted anti-CD70 antibody samples at different concentrations were added, and the mixture was incubated for 1 h. After the plate was washed twice, Alexa Fluor 488-goat anti-human (H+L) antibody (Invitrogen, CAT #A 11013) was added, and the mixture was incubated for 1 h. After the plate was washed twice, fluorescence signals were read using a flow cytometer.
Regarding B2, the concentration for a half-maximal effect (EC50 (read off the curve)) is approximately 0.02 µg/mL.
As for B3, the “EC50 (read off the curve)” value is approximately 0.02 µg/mL.
As to B4, the concentration giving a half-maximal response (EC50 (read off the curve)) was approximately 0.01 µg/mL.
Consider B5, for which the half-maximal effective concentration (EC50 (read off the curve)) is approximately 0.04 µg/mL.

In the next experiment the target is T3, fusion protein of the monkey CD70 protein extracellular domain and Human-IgG1-Fc (monkey CD70-Fc) (monkey).
T3 construct: also called monkey CD70 antigen
T3 sequence (chain, as listed by the source limits assumed): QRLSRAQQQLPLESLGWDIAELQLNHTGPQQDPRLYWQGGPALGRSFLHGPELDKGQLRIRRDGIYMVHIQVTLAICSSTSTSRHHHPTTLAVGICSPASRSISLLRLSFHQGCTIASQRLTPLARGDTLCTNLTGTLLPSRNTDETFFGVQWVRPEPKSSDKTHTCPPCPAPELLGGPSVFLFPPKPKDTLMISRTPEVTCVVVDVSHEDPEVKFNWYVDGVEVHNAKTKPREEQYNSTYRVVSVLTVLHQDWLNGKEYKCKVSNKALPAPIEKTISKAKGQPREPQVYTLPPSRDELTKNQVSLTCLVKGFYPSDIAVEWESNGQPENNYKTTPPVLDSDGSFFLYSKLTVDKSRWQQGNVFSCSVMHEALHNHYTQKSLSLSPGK
Briefly: ELISA, plate coated with 1 µg/mL monkey CD70-Fc, HRP goat anti-human F(ab')2 detection. As to the method: as §1
For B1, the “EC50 (read off the curve)” value was approximately 0.03 µg/mL.

A further experiment has as its target T2, human CD70 on cells (CD70-positive …). The experiment in a line: flow cytometry competition on CHO-S cells expressing human full-length CD70; blocked ligand: biotin-labeled CD27-Fc, Alexa Fluor 488 streptavidin detection. The protocol:
The cell-blocking activity of the anti-CD70 antibodies was assayed by flow cytometry. CHO-S cells expressing human full-length CD70 (Invitrogen, R80007) at 1×10⁶ cells/mL were blocked with 1% BSA PBS buffer, followed by the addition with diluted anti-CD70 antibody samples at different concentrations and biotin-labeled CD27-Fc (set forth in SEQ ID NO: 84), and the mixture was incubated for 1 h. After the plate was washed twice, Alexa Fluor 488-streptavidin (Invitrogen, CAT #S11223) was added, and the mixture was incubated for 1 h. After the plate was washed twice, fluorescence signals were read using a flow cytometer.
On the technique in general: In flow cytometry, cells or beads pass a laser one at a time.
For B6, the “IC50 (read off the curve)” value was approximately 0.4 µg/mL.
The same measure, in the same setting: in the case of B1 it was approximately 0.4 µg/mL; in that of B2, approximately 0.3 µg/mL.
Same read-out and setting: with B3 the figure was approximately 0.3 µg/mL.

A further experiment concerns the target fusion protein of the CD70 protein extracellular domain and Human-IgG1-Fc (human CD70-Fc) (human). Briefly: ELISA, plate coated with 1 µg/mL human CD70-Fc, HRP goat anti-human F(ab')2 detection. As to the method: as §1
Turning to B1, the binding result is reported as “binds”.

Another experiment concerns the target T2, human CD70 on cells (CD70-positive …). The experiment in a line: flow cytometry on CD70-positive 786-O cells, Alexa Fluor 488 goat anti-human (H+L) detection. As to the method:
as §2
With B1, the “EC50 (read off the curve)” value is approximately 0.02 µg/mL.
On the same count and under the same terms, with B2 the figure was approximately 0.02 µg/mL.
The same measure, in the same setting: with B3 the figure was approximately 0.02 µg/mL; with B4, approximately 0.03 µg/mL.
On to B5, for which the “EC50 (read off the curve)” value was approximately 0.03 µg/mL.

The next experiment shares this target. The experiment in a line: cell-based or functional assay.
Consider B6, for which the “IC50 (ng/mL), inhibition of IL-8 secretion mediated by CD70/CD27 binding (U266 cells + HT1080/CD27 cells)” value (“IC50 (ng/mL), inhibition” below) was found to be 19.8 ng/mL and the “Imax (%), maximum inhibition rate of IL-8 secretion from CD27 cells” value (from here on “Imax (%), maximum inhibition rate”) was 91.7%.
For B1, the “IC50 (ng/mL), inhibition” value was 21 ng/mL and the “Imax (%), maximum inhibition rate” value is 98.7%.
For B2, the “IC50 (ng/mL), inhibition” value turned out to be 13 ng/mL and the “Imax (%), maximum inhibition rate” value worked out at 92.3%.
In the case of B4, the “IC50 (ng/mL), inhibition” value stood at 23.3 ng/mL and the “Imax (%), maximum inhibition rate” value is 70.9%.
Turning to B5, the “IC50 (ng/mL), inhibition” value was found to be 24.2 ng/mL and the “Imax (%), maximum inhibition rate” value was determined as 71.1%.

A further experiment addresses T4, His-tagged CD70 protein extracellular domain (His-TNC-CD70) (human).
T4 construct: Expressed in 293 cells; also called human His-TNC-CD70 antigen; human CD70 antigen
T4 chain: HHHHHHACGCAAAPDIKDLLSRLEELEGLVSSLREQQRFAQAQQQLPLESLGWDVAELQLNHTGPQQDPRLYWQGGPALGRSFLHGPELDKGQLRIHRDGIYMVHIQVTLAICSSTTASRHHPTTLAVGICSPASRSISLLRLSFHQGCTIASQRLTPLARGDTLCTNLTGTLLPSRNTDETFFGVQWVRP
The experiment in a line: SPR Biacore T200, antibody captured by anti-human Fc, His-TNC-CD70 in flow, 1:1 model. The protocol:
The affinity of the chimeric and humanized antibodies of the present disclosure for the human CD70 antigen was tested using a Biacore instrument. The procedures are as follows:
The human Fc capture molecules were covalently coupled to a CM5 biosensor chip (CAT #BR-1005-30, GE) according to the method described in the instructions of the human Fc capture kit (CAT #BR-1008-39, GE) for affinity capture of the antibodies to be tested. Then, a human His-TNC-CD70 antigen (set forth in SEQ ID NO: 1) flowed through the surface of the chip, and the reaction signal was detected in real time using a Biacore T200 instrument to obtain association and dissociation curves. After the dissociation was completed for each cycle, the biochip was washed and regenerated with a regeneration solution configured in the human antibody capture kit (GE). Data were fitted using a 1:1 model.
In turn, B1 returned a Kd of 0.0286 nM, a dissociation rate constant (koff) of 0.000174 s⁻¹ and an association rate constant (kon) of 6.09e+06 M⁻¹ s⁻¹.
For B7 the same measures were 0.0375 nM, 8.37e-05 s⁻¹ and 2.23e+06 M⁻¹ s⁻¹.
B8 had a Kd of 0.0334 nM, an off-rate (koff) of 7.54e-05 s⁻¹ and a kon of 2.26e+06 M⁻¹ s⁻¹.
For B9 the same measures were 0.0503 nM, 9.62e-05 s⁻¹ and 1.91e+06 M⁻¹ s⁻¹.
On the same counts, the results for B10 are 0.0407 nM, 0.00016 s⁻¹ and 3.93e+06 M⁻¹ s⁻¹.
On to B11, for which the affinity, expressed as Kd, was 0.0462 nM; the off-rate constant (koff) was 0.000154 s⁻¹; the on-rate (kon) was found to be 3.33e+06 M⁻¹ s⁻¹.
Turning to B12, binding was characterised by a dissociation constant (Kd) of 0.0561 nM, the koff was determined as 0.000101 s⁻¹ and the on-rate constant (kon) is 1.8e+06 M⁻¹ s⁻¹.
